Consider 40 sequences from the nanobody polyreactivity screen of Harvey et al. (2022).

A short description of the data set: yeast display, Sf9 membrane polyspecificity reagent, FACS + sequencing; frameworks hold sequencing errors. The method in brief:
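Sorting gates, low and high (top ~1%), were placed on anti-HA fluorescence to track expression and on streptavidin fluorescence to track reagent binding. A clone's polyreactivity label is taken from the gate it came out of. The reagent was 10% biotinylated, detergent-solubilized Sf9 membrane, applied for 1 hour at 4 °C to galactose-induced yeast display cells.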
Regarding “QVQLVESGGGLVQAGGSLRLSCAASGSTFRHYAMGWYRQAPGKERELVAVISWGGTSTYYADSVKGRFTISRDNAKNTVYLQMKSLKPEDTAVYYCNKAYFPIFKGYEMYYWGQGTQVTVSS”, the “polyreactivity (PSR sort gate)” value is given as “low polyreactivity”.

As for “QVQLVESGGGLVQAGGSLRLSCAASGSTFRINTMGWYRQAPGKERELVATITGSGGSTYYADSVKGRFTISRDNAKNTVYLQMNSLKPEDTAVYYCAAVGDQNEYDYWGQGTQVTVSS”, the “polyreactivity (PSR sort gate)” value is reported as “low polyreactivity”.

As for “QVQLVESGGGLVQAGGSLRLSCAASGSTFRIYAMGWYRQAPGKERELVAAISKRGGSTYYADSVKGRFTISRDNAKNTVYLQMNSLKPEDTAVYYCAKPPYSQYEFDYWGQGTQVTVSS”, the “polyreactivity (PSR sort gate)” value is recorded as “high polyreactivity”.

For the sequence “QVQLVESGGGLVQAGGSLRLSCAASGSTFRIYVMGWYRQAPGKEREFVAAISRGGGSTYYADSVKGRFTISRDNAKNTVYLQMNSLKPEDTAVYYCAAVTRDYGSRSGLDYWGQGTQVTVSS”, the “polyreactivity (PSR sort gate)” value was “high polyreactivity”.

On to “QVQLVESGGGLVQAGGSLRLSCAASGSTFRLNAMGWYRQAPGKERELVAAITSGGSTTYADSVKGRFTISRDNAKNTVYLQMNSLKPEDTAVYYCAAANWGTPPYDYWGQGTQVTVSS”, for which the “polyreactivity (PSR sort gate)” value is recorded as “low polyreactivity”.

In the case of “QVQLVESGGGLVQAGGSLRLSCAASGSTFRLYAMGWYRQAPGKERELVAAISTRGSSTYYADSVKGRFTISRDNAKNTVYLQMNSLKPEDTAVYYCAADAYFIYSRYWYDYWGQGTQVTVSS”, the “polyreactivity (PSR sort gate)” value is reported as “high polyreactivity”.

For the sequence “QVQLVESGGGLVQAGGSLRLSCAASGSTFRNNAMGWYRQAHGKERELVAAISRGGGSTYYADSVKGRFTISRDNAKNTVYLQMNSLKPEDTAVYYCARRPTGIYDYWGQGTQVTVSS”, the “polyreactivity (PSR sort gate)” value is on record as “high polyreactivity”.

With “QVQLVESGGGLVQAGGSLRLSCAASGSTFRNYAMGWYRQAPGKERELVATISASGGSTYYADSVKGRFTISRDNAKNTVYLQMNSLKPEDTAVYYCNAVVKLWGLVIPPGDYDYWGQGTQVTVSS”, the “polyreactivity (PSR sort gate)” value was “high polyreactivity”.

Consider “QVQLVESGGGLVQAGGSLRLSCAASGSTFRQNAMGWYRQAPGKERELVAAITYRVASTYYADSVKGRFTISRDNAKNTVYLQMNSLKPEDSAVYYCAAYKRRSNGRYWTYDYWGQGSQVTVSS”, for which the “polyreactivity (PSR sort gate)” value is given as “high polyreactivity”.

Take “QVQLVESGGGLVQAGGSLRLSCAASGSTFRQYAMGWSRQAPGKERELVAAISSSGGSTYYADSVKGRFTISRDNAKNTVYLQMNSLKPEDTAGYYCNARLYGSASWGQPKEYDYWGQGTQVTVSS”: the “polyreactivity (PSR sort gate)” value is listed as “low polyreactivity”.

In the case of “QVQLVESGGGLVQAGGSLRLSCAASGSTFRQYAMGWYRQAPGKERELVAGISYRGGRTYYADSVKGRFTISRDNAKNTVYLQMNSLKPEDTAVYYCNALRHYRDISVDGDDYWGQGTQVTVSS”, the “polyreactivity (PSR sort gate)” value is given as “high polyreactivity”.

In the case of “QVQLVESGGGLVQAGGSLRLSCAASGSTFRRNAMGWYRQAPGKERELVAAISGSGGSTYYADSVKGRFTISRDNAKNTVYLQMNSLKPEDTAVYYCAARVVKNYKSDSWGQGTQVTVSS”, the “polyreactivity (PSR sort gate)” value is “high polyreactivity”.

With “QVQLVESGGGLVQAGGSLRLSCAASGSTFRRNAMGWYRQAPGKERELVAAITSTDSTYYADSVKGRFTISRDNAKNTVYLQMNSLKPEDTAVYYCAKGYWWGGEMGYWGQGSQVTVSS”, the “polyreactivity (PSR sort gate)” value is listed as “low polyreactivity”.

As for “QVQLVESGGGLVQAGGSLRLSCAASGSTFRRYAMGWYRQAPGKERELVAAITTADITNYADSVKGRFTISRDNAKNTVYLQMNSLKPEDTAVYYCAAPVAYRGSRNFIYRYNYWGQGTQVTVSS”, the “polyreactivity (PSR sort gate)” value is “high polyreactivity”.

In the case of “QVQLVESGGGLVQAGGSLRLSCAASGSTFRRYTMGWYRQAPGKERELLAAISSGGSTYYADSVKGRFTISRDNAKNTVYLQMNSLNPEDTAVYYCAAKNYPLTRYWRYDYSEYYYWGQATQVTVSS”, the “polyreactivity (PSR sort gate)” value is “high polyreactivity”.

For the sequence “QVQLVESGGGLVQAGGSLRLSCAASGSTFRRYVMGGYREAAGKERELVAAISGSSGSTYYADSVKGRFTISRDNAKNTVYLQMNSLKPEDTAVYYCAAVRATQGYRYGYWGQGTQVTVSS”, the “polyreactivity (PSR sort gate)” value was “high polyreactivity”.

On to “QVQLVESGGGLVQAGGSLRLSCAASGSTFRSYAMGWYRQAPGKERELVAAISSSGSRTYYADSVKGRFTISRDNAKNTVYLQMNSLKPEDTAVYYCAADYYYNTKLDYWGQGTQVTVSS”, for which the “polyreactivity (PSR sort gate)” value is on record as “high polyreactivity”.

On to “QVQLVESGGGLVQAGGSLRLSCAASGSTFRSYAMGWYRQAPGKERELVAAISYSGDSTYYADSVKGRFTISRDNAKNTVYLQMNSLKPEDTAVYYCAALRDWDIQGEPWKRYGYWGQGTQVTVSS”, for which the “polyreactivity (PSR sort gate)” value is recorded as “low polyreactivity”.

With “QVQLVESGGGLVQAGGSLRLSCAASGSTFRSYAMGWYRQAPGKERELVAVISSGDSTYYADSVKGRFTISRDNAKNTVYLQMNSLKPEDTAVYYSAADSYVLGRWYGYWGQGTQVTVSS”, the “polyreactivity (PSR sort gate)” value is “low polyreactivity”.

For the sequence “QVQLVESGGGLVQAGGSLRLSCAASGSTFRSYARGWYRQAPGKERELVAVISKRGGSTYYADSVKGRFTISRDNAKNTVYLQMNSLKPEDTAVYYCAADVYRYYAPNDYYWGQGTQVTVSS”, the “polyreactivity (PSR sort gate)” value is given as “high polyreactivity”.

As to “QVQLVESGGGLVQAGGSLRLSCAASGSTFRSYGMGWYRQAPRKERELVAGISVSGGRTSYADSVKGRFTISRDNAKNTVYLQMNSLKPEDTAVYYCAARRSKVGYHRDYYWGQGTQVTVSS”, the “polyreactivity (PSR sort gate)” value is “high polyreactivity”.

For “QVQLVESGGGLVQAGGSLRLSCAASGSTFRSYVMGWYRQAPGKERELGAGISYRGGTTYYADSVKGRFTISRDNAKNTVYLQMNSLKPEDTAVYNCAADSTPYVLSGNYDYWGQGTQVTVSS”, the “polyreactivity (PSR sort gate)” value is on record as “low polyreactivity”.

Consider “QVQLVESGGGLVQAGGSLRLSCAASGSTFRTYAMGWYRQAPGKERDLVASIDSTGSTNYADSVKGRFTISRDNAKNTVYLQMNSLKPEDTAVYYCAAETYSDPPFYAYDYWGQGTQVTVSS”, for which the “polyreactivity (PSR sort gate)” value is recorded as “low polyreactivity”.

“QVQLVESGGGLVQAGGSLRLSCAASGSTFRTYAMGWYRQAPGKERELVAAISFNGTRTYYADSVKGRFTISRDNAKNTVYLQMNSLKPEDTAVYYCAARGRGSFHQKGYYYWGQGTQVTVSS”: the “polyreactivity (PSR sort gate)” value is listed as “high polyreactivity”.

In the case of “QVQLVESGGGLVQAGGSLRLSCAASGSTFRVNAMGWYRQAPGKERELVAAISYRGGSTYYADSVKGRFTISRDNAKNTVYLQMINLKPEDTAVYYCNADLKRRTYGPDSYYWGQGTQVTVSS”, the “polyreactivity (PSR sort gate)” value was “high polyreactivity”.

Take “QVQLVESGGGLVQAGGSLRLSCAASGSTFRVNAMGWYRQEPGKEREFVDAITWSTGSTYYADSVKGRFTISRDYAMNTVYLQMNSLKPEDTAVYYCAAREQTYSQRGKKLYYFWGQGTQVTVST”: the “polyreactivity (PSR sort gate)” value is “high polyreactivity”.

In the case of “QVQLVESGGGLVQAGGSLRLSCAASGSTFRVNARGWYRQAPGKERELVAAISFSAGGTYYADSVKGRFTISRDNAKNTVYLQMNSLKPEDTAVYYCAADFYYYDYWGQCTQVTVSS”, the “polyreactivity (PSR sort gate)” value was “low polyreactivity”.

On to “QVQLVESGGGLVQAGGSLRLSCAASGSTFRVYAMGWYRQAPGKEREFVAAITGSDGSTYYADSVKGRFTISRDNAKNTVYLQMNSLKPEDTAVYYCAADYYLQNYETGYGYWGQGTQVTVSS”, for which the “polyreactivity (PSR sort gate)” value is listed as “low polyreactivity”.

Turning to “QVQLVESGGGLVQAGGSLRLSCAASGSTFRVYAMGWYRQAPGKERELVAGITQTSGRTYYADSVKGRFTISRDNAKNTVYLQMNSLKPEDTAVYYCARESYSSYFHYYYWGQGTQVTVSS”, the “polyreactivity (PSR sort gate)” value is given as “high polyreactivity”.

With “QVQLVESGGGLVQAGGSLRLSCAASGSTFRVYDMGWYRQAPGKERELVASISYSVGSTYYADSVKGRFTISRDNAKNTVYLQMNSLKPEDTAVYYCAARPSYQPSSLARYDYWGQGTQVTVSS”, the “polyreactivity (PSR sort gate)” value is “low polyreactivity”.

As to “QVQLVESGGGLVQAGGSLRLSCAASGSTFRWNAMGWYRQAPGKERELDAAINSGGSTNYADSVKGRFTISRDNAKNTVYLQMNSLKPEDTAVYYCATRYDVSYIKFDYWGQGTQVTVSS”, the “polyreactivity (PSR sort gate)” value is given as “high polyreactivity”.

For the sequence “QVQLVESGGGLVQAGGSLRLSCAASGSTFRWYAMGWYRQAPGKERELVAAISRSGGNTYYADSVKGRFTISRDNAKNTVYLQMNSLKPEDTAVYYCAARKLYGSPEHGYWGQGTQVTVSS”, the “polyreactivity (PSR sort gate)” value was “high polyreactivity”.

Consider “QVQLVESGGGLVQAGGSLRLSCAASGSTFRWYAMGWYRQAPGKERELVASISGSGGSTYYADSVKGRFTISRDNAKNTVYLQMNSLKPEDTAVYYCNKRYFTYLGEHTVGYWGQGTQVTVSS”, for which the “polyreactivity (PSR sort gate)” value is “high polyreactivity”.

Consider “QVQLVESGGGLVQAGGSLRLSCAASGSTFRWYGMGWYRQAPGKERELVAVITRGGSTYYADSVKGRFTISRDNAKNTVYLQMNSLKPEDTAVYYCARVRGPNNAFYLGSTYGYWGQGTQVTVSS”, for which the “polyreactivity (PSR sort gate)” value was “high polyreactivity”.

“QVQLVESGGGLVQAGGSLRLSCAASGSTFRYNAKGWYRQAPGKERELVAAINRGGGTDYADSVKGRFTISRDNAKNTVYLQMNSLKPEDTAVYYCAKQFVSYNRWLAYGYWGQATQVTVSS”: the “polyreactivity (PSR sort gate)” value was “low polyreactivity”.

Take “QVQLVESGGGLVQAGGSLRLSCAASGSTFRYNAMGWYRPAPGKERELVAAITSGGGTNYADSVKGRFTISRDNAKNTVYLQMNSLKPEDTAVYYCAAPWGLGSELLKRDYWGQGTQVTVSS”: the “polyreactivity (PSR sort gate)” value is reported as “low polyreactivity”.

Turning to “QVQLVESGGGLVQAGGSLRLSCAASGSTFRYNAMGWYRQAPGKERELVAAISSGSSTNYADSVKGRFTISRDNEKNTVYFQMNSLKPVDTAVYYCAAQPGYYDDFYYWGQGTQVTVSA”, the “polyreactivity (PSR sort gate)” value is recorded as “low polyreactivity”.

With “QVQLVESGGGLVQAGGSLRLSCAASGSTFRYNAMGWYRQAPGKERELVAAITSGGGTNYADSVKGRFTISRDNAKNTVYLQMKSLKPEDTAVYYCAAPWGLGSELLKRDYWGQGTQVTVSS”, the “polyreactivity (PSR sort gate)” value was “low polyreactivity”.

Take “QVQLVESGGGLVQAGGSLRLSCAASGSTFRYNAMGWYRQAPGKERELVAAITSTGDSTYYADSVKGRFTISRDNAKNTVYLQMNSLKPEDTAVYYCAARSYASPGWRYEYWGQGTQVTVSS”: the “polyreactivity (PSR sort gate)” value is reported as “low polyreactivity”.

Consider “QVQLVESGGGLVQAGGSLRLSCAASGSTFRYNAMGWYRQAPGKERELVAGISYRGGTTYYADSVKGRFTISRDNAKNTVYLQMNSLKPEDTAVYYCAAGASSPGGWFYYWGQGTQVTVSS”, for which the “polyreactivity (PSR sort gate)” value is “high polyreactivity”.
